For one molecule, Kd results are on record in patent publication US20220242973A1 (Molecular Partners, published 2022).

The target in the assay is T1, Recombinant human FAP (fibroblast activation protein) (human, UniProt Q12884 26-760).
T1 construct: Bought soluble recombinant protein; Chemically biotinylated for the HTRF screen; also called hFAP; biotinylated human FAP
T1 sequence (looked up): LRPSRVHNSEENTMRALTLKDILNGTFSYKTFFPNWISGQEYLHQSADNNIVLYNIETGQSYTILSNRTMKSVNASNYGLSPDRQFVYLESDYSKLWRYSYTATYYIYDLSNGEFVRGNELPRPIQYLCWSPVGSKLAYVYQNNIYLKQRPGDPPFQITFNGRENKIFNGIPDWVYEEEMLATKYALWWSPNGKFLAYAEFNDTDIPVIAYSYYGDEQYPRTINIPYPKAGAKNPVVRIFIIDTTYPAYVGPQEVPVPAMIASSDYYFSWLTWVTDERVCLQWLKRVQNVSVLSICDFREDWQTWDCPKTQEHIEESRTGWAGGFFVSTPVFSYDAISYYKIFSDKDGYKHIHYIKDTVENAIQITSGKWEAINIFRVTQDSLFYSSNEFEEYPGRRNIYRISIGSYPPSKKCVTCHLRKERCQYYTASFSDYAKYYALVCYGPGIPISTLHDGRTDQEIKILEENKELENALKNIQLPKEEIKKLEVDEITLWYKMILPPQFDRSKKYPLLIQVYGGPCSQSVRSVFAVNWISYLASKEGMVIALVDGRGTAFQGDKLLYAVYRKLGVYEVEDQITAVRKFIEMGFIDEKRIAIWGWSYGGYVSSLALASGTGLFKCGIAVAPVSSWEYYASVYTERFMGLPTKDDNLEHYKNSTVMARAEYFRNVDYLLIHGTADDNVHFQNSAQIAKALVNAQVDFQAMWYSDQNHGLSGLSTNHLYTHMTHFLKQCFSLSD
The experiment in a line: SPR (ProteOn), human FAP immobilized on GLC chip. The method, then: Briefly, human FAP was diluted in 10 mM Na-acetate pH 5.3 buffer and covalently immobilized on a GLC chip (BioRad) to a level of around 2000 resonance units (RU). The interaction of ankyrin repeat protein and hFAP was then measured by injecting 200 μl running buffer (PBS, pH 7.4 containing 0.005% Tween 20®) containing serial dilutions of ankyrin repeat proteins covering a concentration range between 30 nM and 0.5 nM (on-rate measurement), followed by a running buffer flow for at least 25 minutes at a constant flow rate of 100 μl/min (off-rate measurement). The regeneration was performed using 15 μl of 10 mM Glycine pH 2 followed by 15 μl of 124 mM H₃PO₄. […] Based on the SPR traces obtained from the on-rate and off-rate measurements, the on- and off-rate of the corresponding ankyrin repeat protein—FAP interaction was determined.
Briefly, mouse FAP was diluted in 10 mM Na-acetate pH5.3 buffer and covalently immobilized on a GLC chip (BioRad) to a level of around 2000 resonance units (RU). The interaction of DARPin® protein #41 and mFAP was then measured by injecting 200 μl running buffer (PBS, pH7.4 containing 0.005% Tween20®) containing serial dilutions of DARPin® protein #41 covering a concentration range between 50 nM and 3 nM (on-rate measurement), followed by a running buffer flow for 30 minutes at a constant flow rate of 100 μl/min (off-rate measurement). […]

B1: DARPin® protein #41 (designed binder)
chain: MRGSHHHHHHGSDLGKKLLEAARAGQDDEVRELLKAGADVNAKDYFSHTPLHLAARNGHLKIVEVLLKAGADVNAKDFAGKTPLHLAANEGHLEIVEVLLKAGADVNAQDIFGKTPADIAADAGHEDIAEVLQKAAGSPTPTPTTPTPTPTTPTPTPTGSDLGEKLLVAALYGQDDEVRILLAAGADVNAKDQWGLTPLHKAALQGHLEIVEVLLKAGADVNAKDERGHTPLHWAARFGHLEIVEVLLKAGADVNAQDQKGYTPADLAALWGHEDIAEVLQKAA
notes: Fusion of a serum albumin-specific and a FAP-specific ankyrin repeat domain
As for B1, the Kd (commonly the concentration at which binding is half-saturated) stood at 0.264 nM.
